Laboratory results as given in the Immune Epitope Database (IEDB).

Tests used:
HLA-A*24:02 [1] = test: IEDB peptide-MHC binding, purified MHC/competitive/fluorescence; ≥ and ≤ were set here for values at or beyond the usual limits of such assays
HLA-B*07:02 = test: as above; conditions: source organism: Zaire ebolavirus
HLA-B*15:01 [2] = test: as above
HLA-A*02:01 [3] = test: as above
HLA-A*69:01 = test: IEDB peptide-MHC binding, purified MHC/competitive/fluorescence; filed as Kd, often an IC50 or EC50 that approximates it; ≥ and ≤ were set here for values at or beyond the usual limits of such assays
HLA-A*02:11 [4] = test: as above
HLA-A*03:01 [5] = test: as above
HLA-B*18:01 = test: as above
HLA-B*27:03 = test: as above
HLA-A*02:12 [6] = test: as above
HLA-B*51:01 = test: as above
HLA-A*68:02 [7] = test: as above
HLA-B*46:01 = test: as above
HLA-B*39:01 = test: as above
HLA-A*29:02 [8] = test: as above
HLA-A*02:19 [9] = test: as above
HLA-B*15:01 [10] = test: as above
HLA-B*57:01 = test: as above
HLA-A*24:03 [11] = test: as above
HLA-A*02:01 [12] = test: as above
HLA-A*23:01 [13] = test: as above
HLA-B*15:17 = test: as above
HLA-A*26:01 [14] = test: as above
HLA-A*02:16 [15] = test: as above
HLA-A*02:03 [16] = test: as above
HLA-A*02:11 [17] = test: IEDB peptide-MHC binding, purified MHC/direct/fluorescence; filed as Kd, often an IC50 or EC50 that approximates it; ≥ and ≤ were set here for values at or beyond the usual limits of such assays
HLA-A*03:01 [18] = test: as above
HLA-A*02:12 [19] = test: as above
HLA-A*68:02 [20] = test: as above
HLA-A*29:02 [21] = test: as above
HLA-A*02:19 [22] = test: as above
HLA-A*24:03 [23] = test: as above
HLA-A*23:01 [24] = test: as above
HLA-A*26:01 [25] = test: as above; conditions: source organism: Zaire ebolavirus
HLA-A*02:16 [26] = test: as above
HLA-A*02:03 [27] = test: as above
HLA-A*01:01 = test: IEDB peptide-MHC binding, purified MHC/competitive/fluorescence; ≥ and ≤ were set here for values at or beyond the usual limits of such assays; conditions: source organism: Zaire ebolavirus
HLA-B*08:01 = test: as above
HLA-A*24:02 [28] = test: IEDB peptide-MHC binding, purified MHC/competitive/fluorescence; filed as Kd, often an IC50 or EC50 that approximates it; ≥ and ≤ were set here for values at or beyond the usual limits of such assays
HLA-B*27:05 = test: as above; conditions: source organism: Orthohantavirus dobravaense
[29] = source organism: Zaire ebolavirus
[30] = source organism: Coxiella burnetii 'MSU Goat Q177'
[31] = source organism: Vaccinia virus WR
[32] = source organism: Vibrio parahaemolyticus RIMD 2210633
[33] = source organism: Vaccinia virus
[34] = source organism: Orthohantavirus sangassouense
[35] = source organism: Orthohantavirus dobravaense
[36] = source organism: Yersinia pestis Nepal516

AQPKCNPNL
IC50 (HLA-A*24:02 [1]; [29]): 12.1 µM | IC50 (HLA-B*07:02): ≥ 121 µM | IC50 (HLA-B*15:01 [2]; [29]): ≥ 93.5 µM | IC50 (HLA-A*02:01 [3]; [29]): 47.6 µM

AVDWYQQRI
Kd (HLA-A*69:01; [30]): ≥ 20 µM | Kd (HLA-A*02:11 [4]; [30]): ≥ 20 µM | Kd (HLA-A*03:01 [5]; [30]): ≥ 20 µM | Kd (HLA-B*18:01; [30]): ≥ 20 µM | Kd (HLA-B*27:03; [30]): ≥ 20 µM | Kd (HLA-A*02:12 [6]; [30]): ≥ 20 µM | Kd (HLA-B*51:01; [30]): ≥ 20 µM | Kd (HLA-A*68:02 [7]; [30]): ≥ 20 µM | Kd (HLA-B*46:01; [30]): ≥ 20 µM | Kd (HLA-B*39:01; [30]): ≥ 20 µM | Kd (HLA-A*29:02 [8]; [30]): ≥ 20 µM | Kd (HLA-A*02:19 [9]; [30]): ≥ 20 µM | Kd (HLA-B*15:01 [10]; [30]): ≥ 20 µM | Kd (HLA-B*57:01; [30]): ≥ 20 µM | Kd (HLA-A*24:03 [11]; [30]): ≥ 20 µM | Kd (HLA-A*02:01 [12]; [30]): ≥ 20 µM | Kd (HLA-A*23:01 [13]; [30]): ≥ 20 µM | Kd (HLA-B*15:17; [30]): ≥ 20 µM | Kd (HLA-A*26:01 [14]; [30]): ≥ 20 µM | Kd (HLA-A*02:16 [15]; [30]): 0.36 µM | Kd (HLA-A*02:03 [16]; [30]): ≥ 20 µM

EAEKQLQQY
Kd (HLA-A*02:11 [17]; [29]): ≥ 20 µM | Kd (HLA-A*03:01 [18]; [29]): ≥ 20 µM | Kd (HLA-A*02:12 [19]; [29]): ≥ 20 µM | Kd (HLA-A*68:02 [20]; [29]): ≥ 20 µM | Kd (HLA-A*29:02 [21]; [29]): ≥ 20 µM | Kd (HLA-A*02:19 [22]; [29]): ≥ 20 µM | Kd (HLA-A*24:03 [23]; [29]): ≥ 20 µM | Kd (HLA-A*23:01 [24]; [29]): ≥ 20 µM | Kd (HLA-A*26:01 [25]): 2.24 µM | Kd (HLA-A*02:16 [26]; [29]): ≥ 20 µM | Kd (HLA-A*02:03 [27]; [29]): ≥ 20 µM | IC50 (HLA-A*01:01): 18.1 µM | Kd (HLA-A*69:01; [29]): ≥ 20 µM | Kd (HLA-B*18:01; [29]): ≥ 20 µM | Kd (HLA-B*27:03; [29]): ≥ 20 µM | Kd (HLA-B*51:01; [29]): ≥ 20 µM | Kd (HLA-B*46:01; [29]): ≥ 20 µM | Kd (HLA-B*39:01; [29]): ≥ 20 µM | Kd (HLA-B*15:01 [10]; [29]): ≥ 20 µM | Kd (HLA-B*57:01; [29]): ≥ 20 µM | Kd (HLA-A*02:01 [12]; [29]): ≥ 20 µM | Kd (HLA-B*15:17; [29]): ≥ 20 µM

FGLYKSINV
IC50 (HLA-B*08:01; [31]): 37 µM | IC50 (HLA-A*02:01 [3]; [31]): 0.744 µM

GTVPTDNPF
Kd (HLA-A*69:01; [32]): ≥ 20 µM | Kd (HLA-A*02:11 [4]; [32]): ≥ 20 µM | Kd (HLA-A*03:01 [5]; [32]): ≥ 20 µM | Kd (HLA-B*18:01; [32]): ≥ 20 µM | Kd (HLA-B*27:03; [32]): ≥ 20 µM | Kd (HLA-A*02:12 [6]; [32]): ≥ 20 µM | Kd (HLA-B*51:01; [32]): ≥ 20 µM | Kd (HLA-A*68:02 [7]; [32]): ≥ 20 µM | Kd (HLA-B*46:01; [32]): ≥ 20 µM | Kd (HLA-B*39:01; [32]): ≥ 20 µM | Kd (HLA-A*02:19 [9]; [32]): ≥ 20 µM | Kd (HLA-B*57:01; [32]): 5.47 µM | Kd (HLA-A*24:03 [11]; [32]): ≥ 20 µM | Kd (HLA-A*02:01 [12]; [32]): ≥ 20 µM | Kd (HLA-A*23:01 [13]; [32]): ≥ 20 µM | Kd (HLA-A*26:01 [14]; [32]): ≥ 20 µM | Kd (HLA-A*02:16 [15]; [32]): ≥ 20 µM | Kd (HLA-A*02:03 [16]; [32]): ≥ 20 µM

IDILRSLET
IC50 (HLA-B*08:01; [33]): ≥ 514 µM | IC50 (HLA-A*02:01 [3]; [33]): 44.3 µM

ITPKTHFLF
Kd (HLA-A*24:02 [28]; source organism: Giardia intestinalis ATCC 50581): 0.0002 µM

IWGGTSFLF
Kd (HLA-A*24:02 [28]; source organism: Salmonella enterica subsp. enterica serovar Typhi): ≤ 0.0001 µM

KHHTKIDSM
IC50 (HLA-B*08:01; source organism: Variola virus): ≥ 209 µM | IC50 (HLA-A*24:02 [1]; source organism: Variola virus): 1.69 µM

MRNTIMASK
Kd (HLA-A*02:11 [17]; [34]): ≥ 20 µM | Kd (HLA-A*03:01 [18]; [34]): ≥ 20 µM | Kd (HLA-A*02:12 [19]; [34]): ≥ 20 µM | Kd (HLA-A*68:02 [20]; [34]): ≥ 20 µM | Kd (HLA-A*29:02 [21]; [34]): ≥ 20 µM | Kd (HLA-A*02:19 [22]; [34]): ≥ 20 µM | Kd (HLA-A*24:03 [23]; [34]): ≥ 20 µM | Kd (HLA-A*23:01 [24]; [34]): ≥ 20 µM | Kd (HLA-A*02:16 [26]; [34]): ≥ 20 µM | Kd (HLA-A*02:03 [27]; [34]): ≥ 20 µM | Kd (HLA-A*69:01; [35]): ≥ 20 µM | Kd (HLA-B*18:01; [35]): ≥ 20 µM | Kd (HLA-B*51:01; [35]): ≥ 20 µM | Kd (HLA-B*46:01; [35]): ≥ 20 µM | Kd (HLA-B*39:01; [35]): ≥ 20 µM | Kd (HLA-B*27:05): 0.144 µM | Kd (HLA-B*15:01 [10]; [35]): ≥ 20 µM | Kd (HLA-B*57:01; [35]): ≥ 20 µM | Kd (HLA-A*02:01 [12]; [35]): ≥ 20 µM | Kd (HLA-B*15:17; [35]): ≥ 20 µM | Kd (HLA-A*26:01 [14]; [35]): ≥ 20 µM

RQLAKAIIT
IC50 (HLA-B*15:01 [2]; source organism: Vaccinia virus Copenhagen): 40.8 µM

SFERFEIF
Kd (HLA-A*24:02 [28]; source organism: Influenza A virus (A/Harbin/1/1988(H1N2))): 0.237 µM

VSHLTTLAT
IC50 (HLA-B*15:01 [2]; [29]): 28.7 µM | IC50 (HLA-A*02:01 [3]; [29]): ≥ 719 µM

YADGGQWYN
Kd (HLA-A*69:01; [36]): ≥ 20 µM | Kd (HLA-A*02:11 [4]; [36]): 0.0562 µM | Kd (HLA-A*03:01 [5]; [36]): ≥ 20 µM | Kd (HLA-B*18:01; [36]): ≥ 20 µM | Kd (HLA-B*27:03; [36]): ≥ 20 µM | Kd (HLA-A*02:12 [6]; [36]): ≥ 20 µM | Kd (HLA-A*68:02 [7]; [36]): ≥ 20 µM | Kd (HLA-B*46:01; [36]): ≥ 20 µM | Kd (HLA-B*39:01; [36]): ≥ 20 µM | Kd (HLA-A*29:02 [8]; [36]): ≥ 20 µM | Kd (HLA-A*02:19 [9]; [36]): ≥ 20 µM | Kd (HLA-B*15:01 [10]; [36]): ≥ 20 µM | Kd (HLA-B*57:01; [36]): ≥ 20 µM | Kd (HLA-A*24:03 [11]; [36]): ≥ 20 µM | Kd (HLA-A*02:01 [12]; [36]): ≥ 20 µM | Kd (HLA-A*23:01 [13]; [36]): ≥ 20 µM | Kd (HLA-B*15:17; [36]): ≥ 20 µM | Kd (HLA-A*26:01 [14]; [36]): ≥ 20 µM | Kd (HLA-A*02:16 [15]; [36]): ≥ 20 µM | Kd (HLA-A*02:03 [16]; [36]): ≥ 20 µM

YQSYSENGM
IC50 (HLA-B*15:01 [2]; [29]): 16.7 µM | IC50 (HLA-A*02:01 [3]; [29]): 27.9 µM
